# Literature values as cited in article PMC8300624.
# Like-named read-outs stand apart in the source and are kept apart here.
# How the values were obtained:
# [1] = target: ASK1 TBD (Homo sapiens) (UniProt Q99683)
# [2] = target: ASK1 TBD (Homo sapiens) (UniProt Q99683); remark: listed apart in the source
# Chain of ASK1 TBD (Homo sapiens) (Q99683 88-302): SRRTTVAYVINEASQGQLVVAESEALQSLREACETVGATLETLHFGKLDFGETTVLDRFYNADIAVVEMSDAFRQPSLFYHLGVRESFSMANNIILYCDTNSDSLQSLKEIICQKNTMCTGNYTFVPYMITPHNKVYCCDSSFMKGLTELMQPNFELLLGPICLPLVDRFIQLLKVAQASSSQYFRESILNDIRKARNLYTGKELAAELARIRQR
# Chain of Thioredoxin 1 (P10599 2-105): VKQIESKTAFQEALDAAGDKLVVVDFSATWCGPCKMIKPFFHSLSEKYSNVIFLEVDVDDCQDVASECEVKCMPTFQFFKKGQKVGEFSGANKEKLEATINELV
substance,measurement,setting,value
Thioredoxin 1 (from UniProt P10599),Kd,[1],0.3 µM
same,Kd,[2],4 µM
